{
  "source": "paper PMC12102759",
  "about": "(2025)",
  "parents": {"B1": {"name": "PEX5 peptide 240-255 (Peroxisomal targeting signal 1 receptor), 16-mer library wild type / PEX14 Pex14 (PEX14 PEX14, residues 16-84) (parent complex)", "chain 1": "AEQWAAEFIQQQGTSD", "chain 2": "TPGSENVLPREPLIATAVKFLQNSRVRQSPLATRRAFLKKKGLTDEEIDMAFQQSGTAADEPSSLGPAT"}, "B2": {"name": "AZIN2 peptide 1-16 (Antizyme inhibitor 2), 16-mer library wild type / NSP3 ADRP (ORF1ab Nsp3b ADRP, residues 1023-1192) (parent complex)", "chain 1": "MAGYLSESDFVMVEEG", "chain 2": "not shown"}},
  "data": [
    {"variants_of": "B1", "test": "proteomic peptide phage display deep mutational scan (ProP-PD DMS): M13 P8 16-mer library selected against immobilised GST-tagged bait for four days (rounds), NGS of the eluted pools per day and pseudo-replica; bait immobilised on MaxiSorp plates (10 µg), library pre-cleared on GST, 2 h binding at 4 °C, five washes; one round per day, days 1-4; value from days 2 and 3", "values": [
      {"variant": "chain 1 AEQWAAEFIPQQGTSD", "note": "[chain 1 Q10P]", "screen value": "0.00113 average fractional NGS count over selection days 2 and 3 (reads of this peptide / all reads for the bait, averaged over …"},
      {"variant": "chain 1 AEQWAAEFIRQQGTSD", "note": "[chain 1 Q10R]", "screen value": "0.00109 average fractional NGS count over selection days 2 and 3 (reads of this peptide / all reads for the bait, averaged over …"},
      {"variant": "chain 1 ANQWAAEFIQQQGTSD", "note": "[chain 1 E2N]", "screen value": "0.0028 average fractional NGS count over selection days 2 and 3 (reads of this peptide / all reads for the bait, averaged over …"},
      {"variant": "chain 1 ARQWAAEFIQQQGTSD", "note": "[chain 1 E2R]", "screen value": "0.00281 average fractional NGS count over selection days 2 and 3 (reads of this peptide / all reads for the bait, averaged over …"},
      {"variant": "chain 1 AEQWAAEFIQKQGTSD", "note": "[chain 1 Q11K]", "screen value": "0.000704 average fractional NGS count over selection days 2 and 3 (reads of this peptide / all reads for the bait, averaged over …"},
      {"variant": "chain 1 AEQWAAEFIQAQGTSD", "note": "[chain 1 Q11A]", "screen value": "0.00173 average fractional NGS count over selection days 2 and 3 (reads of this peptide / all reads for the bait, averaged over …"},
      {"variant": "chain 1 AEQWAAEFIQQQHTSD", "note": "[chain 1 G13H]", "screen value": "0.00793 average fractional NGS count over selection days 2 and 3 (reads of this peptide / all reads for the bait, averaged over …"},
      {"variant": "chain 1 AETWAAEFIQQQGTSD", "note": "[chain 1 Q3T]", "screen value": "0.00148 average fractional NGS count over selection days 2 and 3 (reads of this peptide / all reads for the bait, averaged over …"},
      {"variant": "chain 1 AEHWAAEFIQQQGTSD", "note": "[chain 1 Q3H]", "screen value": "0.00576 average fractional NGS count over selection days 2 and 3 (reads of this peptide / all reads for the bait, averaged over …"},
      {"variant": "chain 1 AEPWAAEFIQQQGTSD", "note": "[chain 1 Q3P]", "screen value": "0.00138 average fractional NGS count over selection days 2 and 3 (reads of this peptide / all reads for the bait, averaged over …"},
      {"variant": "chain 1 AEQWSAEFIQQQGTSD", "note": "[chain 1 A5S]", "screen value": "0.00197 average fractional NGS count over selection days 2 and 3 (reads of this peptide / all reads for the bait, averaged over …"},
      {"variant": "chain 1 AEQWYAEFIQQQGTSD", "note": "[chain 1 A5Y]", "screen value": "0.00174 average fractional NGS count over selection days 2 and 3 (reads of this peptide / all reads for the bait, averaged over …"},
      {"variant": "chain 1 AEQWDAEFIQQQGTSD", "note": "[chain 1 A5D]", "screen value": "0.00199 average fractional NGS count over selection days 2 and 3 (reads of this peptide / all reads for the bait, averaged over …"},
      {"variant": "chain 1 AEQWQAEFIQQQGTSD", "note": "[chain 1 A5Q]", "screen value": "0.00841 average fractional NGS count over selection days 2 and 3 (reads of this peptide / all reads for the bait, averaged over …"},
      {"variant": "chain 1 AEQWKAEFIQQQGTSD", "note": "[chain 1 A5K]", "screen value": "0.00108 average fractional NGS count over selection days 2 and 3 (reads of this peptide / all reads for the bait, averaged over …"},
      {"variant": "chain 1 AEQWAAEYIQQQGTSD", "note": "[chain 1 F8Y]", "screen value": "0.000429 average fractional NGS count over selection days 2 and 3 (reads of this peptide / all reads for the bait, averaged over …"},
      {"variant": "chain 1 AEQWAAEFAQQQGTSD", "note": "[chain 1 I9A]", "screen value": "0.00188 average fractional NGS count over selection days 2 and 3 (reads of this peptide / all reads for the bait, averaged over …"},
      {"variant": "chain 1 AEQWAAEFEQQQGTSD", "note": "[chain 1 I9E]", "screen value": "0.00149 average fractional NGS count over selection days 2 and 3 (reads of this peptide / all reads for the bait, averaged over …"},
      {"variant": "chain 1 AEQWAAEFVQQQGTSD", "note": "[chain 1 I9V]", "screen value": "0.00275 average fractional NGS count over selection days 2 and 3 (reads of this peptide / all reads for the bait, averaged over …"},
      {"variant": "chain 1 AEQWAAEFNQQQGTSD", "note": "[chain 1 I9N]", "screen value": "0.00185 average fractional NGS count over selection days 2 and 3 (reads of this peptide / all reads for the bait, averaged over …"},
      {"variant": "chain 1 AEQWAAEFQQQQGTSD", "note": "[chain 1 I9Q]", "screen value": "0.00295 average fractional NGS count over selection days 2 and 3 (reads of this peptide / all reads for the bait, averaged over …"},
      {"variant": "chain 1 AEQWAAEFIQQQGVSD", "note": "[chain 1 T14V]", "screen value": "0.000546 average fractional NGS count over selection days 2 and 3 (reads of this peptide / all reads for the bait, averaged over …"},
      {"variant": "chain 1 AEQWAAEFIQQQGGSD", "note": "[chain 1 T14G]", "screen value": "0.000345 average fractional NGS count over selection days 2 and 3 (reads of this peptide / all reads for the bait, averaged over …"},
      {"variant": "chain 1 MEQWAAEFIQQQGTSD", "note": "[chain 1 A1M]", "screen value": "0.000375 average fractional NGS count over selection days 2 and 3 (reads of this peptide / all reads for the bait, averaged over …"},
      {"variant": "chain 1 DEQWAAEFIQQQGTSD", "note": "[chain 1 A1D]", "screen value": "0.00705 average fractional NGS count over selection days 2 and 3 (reads of this peptide / all reads for the bait, averaged over …"},
      {"variant": "chain 1 EEQWAAEFIQQQGTSD", "note": "[chain 1 A1E]", "screen value": "0.000945 average fractional NGS count over selection days 2 and 3 (reads of this peptide / all reads for the bait, averaged over …"},
      {"variant": "chain 1 KEQWAAEFIQQQGTSD", "note": "[chain 1 A1K]", "screen value": "0.000873 average fractional NGS count over selection days 2 and 3 (reads of this peptide / all reads for the bait, averaged over …"},
      {"variant": "chain 1 NEQWAAEFIQQQGTSD", "note": "[chain 1 A1N]", "screen value": "0.00349 average fractional NGS count over selection days 2 and 3 (reads of this peptide / all reads for the bait, averaged over …"},
      {"variant": "chain 1 YEQWAAEFIQQQGTSD", "note": "[chain 1 A1Y]", "screen value": "0.017 average fractional NGS count over selection days 2 and 3 (reads of this peptide / all reads for the bait, averaged over …"},
      {"variant": "chain 1 AEQWAAVFIQQQGTSD", "note": "[chain 1 E7V]", "screen value": "0.000633 average fractional NGS count over selection days 2 and 3 (reads of this peptide / all reads for the bait, averaged over …"},
      {"variant": "chain 1 AEQWAWEFIQQQGTSD", "note": "[chain 1 A6W]", "screen value": "0.00422 average fractional NGS count over selection days 2 and 3 (reads of this peptide / all reads for the bait, averaged over …"},
      {"variant": "chain 1 AEQWATEFIQQQGTSD", "note": "[chain 1 A6T]", "screen value": "0.0091 average fractional NGS count over selection days 2 and 3 (reads of this peptide / all reads for the bait, averaged over …"},
      {"variant": "chain 1 AEQWAEEFIQQQGTSD", "note": "[chain 1 A6E]", "screen value": "0.000449 average fractional NGS count over selection days 2 and 3 (reads of this peptide / all reads for the bait, averaged over …"},
      {"variant": "chain 1 AEQWAAEFIQQWGTSD", "note": "[chain 1 Q12W]", "screen value": "0.000968 average fractional NGS count over selection days 2 and 3 (reads of this peptide / all reads for the bait, averaged over …"},
      {"variant": "chain 1 AEQWAAEFIQQGGTSD", "note": "[chain 1 Q12G]", "screen value": "0.00219 average fractional NGS count over selection days 2 and 3 (reads of this peptide / all reads for the bait, averaged over …"}
    ]},
    {"variants_of": "B2", "test": "bait immobilised on MaxiSorp plates (10 µg), library pre-cleared on GST, 2 h binding at 4 °C, five washes; one round per day, days 1-4; value from days 2 and 3", "values": [
      {"variant": "chain 1 Y4W", "screen value": "0.00197 average fractional NGS count over selection days 2 and 3 (reads of this peptide / all reads for the bait, averaged over …"},
      {"variant": "chain 1 D9N", "screen value": "0.0514 average fractional NGS count over selection days 2 and 3 (reads of this peptide / all reads for the bait, averaged over …"},
      {"variant": "chain 1 D9G", "screen value": "0.000412 average fractional NGS count over selection days 2 and 3 (reads of this peptide / all reads for the bait, averaged over …"},
      {"variant": "chain 1 D9E", "screen value": "0.000316 average fractional NGS count over selection days 2 and 3 (reads of this peptide / all reads for the bait, averaged over …"},
      {"variant": "chain 1 D9Q", "screen value": "0.000191 average fractional NGS count over selection days 2 and 3 (reads of this peptide / all reads for the bait, averaged over …"},
      {"variant": "chain 1 D9K", "screen value": "0.00156 average fractional NGS count over selection days 2 and 3 (reads of this peptide / all reads for the bait, averaged over …"},
      {"variant": "chain 1 G3K", "screen value": "0.00086 average fractional NGS count over selection days 2 and 3 (reads of this peptide / all reads for the bait, averaged over …"},
      {"variant": "chain 1 G3R", "screen value": "7.43e-05 average fractional NGS count over selection days 2 and 3 (reads of this peptide / all reads for the bait, averaged over …"},
      {"variant": "chain 1 G3H", "screen value": "8.37e-05 average fractional NGS count over selection days 2 and 3 (reads of this peptide / all reads for the bait, averaged over …"},
      {"variant": "chain 1 G3D", "screen value": "0.00677 average fractional NGS count over selection days 2 and 3 (reads of this peptide / all reads for the bait, averaged over …"},
      {"variant": "chain 1 G3M", "screen value": "0.000375 average fractional NGS count over selection days 2 and 3 (reads of this peptide / all reads for the bait, averaged over …"},
      {"variant": "chain 1 G3A", "screen value": "0.000627 average fractional NGS count over selection days 2 and 3 (reads of this peptide / all reads for the bait, averaged over …"},
      {"variant": "chain 1 G3Q", "screen value": "0.000537 average fractional NGS count over selection days 2 and 3 (reads of this peptide / all reads for the bait, averaged over …"},
      {"variant": "chain 1 M12N", "screen value": "0.00321 average fractional NGS count over selection days 2 and 3 (reads of this peptide / all reads for the bait, averaged over …"},
      {"variant": "chain 1 M12Y", "screen value": "0.000582 average fractional NGS count over selection days 2 and 3 (reads of this peptide / all reads for the bait, averaged over …"},
      {"variant": "chain 1 M12E", "screen value": "0.000138 average fractional NGS count over selection days 2 and 3 (reads of this peptide / all reads for the bait, averaged over …"},
      {"variant": "chain 1 M12L", "screen value": "0.0611 average fractional NGS count over selection days 2 and 3 (reads of this peptide / all reads for the bait, averaged over …"},
      {"variant": "chain 1 M12H", "screen value": "0.000156 average fractional NGS count over selection days 2 and 3 (reads of this peptide / all reads for the bait, averaged over …"},
      {"variant": "chain 1 M12A", "screen value": "0.00221 average fractional NGS count over selection days 2 and 3 (reads of this peptide / all reads for the bait, averaged over …"},
      {"variant": "chain 1 M12R", "screen value": "0.000896 average fractional NGS count over selection days 2 and 3 (reads of this peptide / all reads for the bait, averaged over …"},
      {"variant": "chain 1 E7K", "screen value": "0.00106 average fractional NGS count over selection days 2 and 3 (reads of this peptide / all reads for the bait, averaged over …"},
      {"variant": "chain 1 V13H", "screen value": "0.00368 average fractional NGS count over selection days 2 and 3 (reads of this peptide / all reads for the bait, averaged over …"},
      {"variant": "chain 1 V13T", "screen value": "8.71e-05 average fractional NGS count over selection days 2 and 3 (reads of this peptide / all reads for the bait, averaged over …"},
      {"variant": "chain 1 V13I", "screen value": "0.00423 average fractional NGS count over selection days 2 and 3 (reads of this peptide / all reads for the bait, averaged over …"},
      {"variant": "chain 1 V13Q", "screen value": "0.000748 average fractional NGS count over selection days 2 and 3 (reads of this peptide / all reads for the bait, averaged over …"},
      {"variant": "chain 1 V13M", "screen value": "0.000618 average fractional NGS count over selection days 2 and 3 (reads of this peptide / all reads for the bait, averaged over …"},
      {"variant": "chain 1 V11L", "screen value": "0.0066 average fractional NGS count over selection days 2 and 3 (reads of this peptide / all reads for the bait, averaged over …"},
      {"variant": "chain 1 V11E", "screen value": "0.000156 average fractional NGS count over selection days 2 and 3 (reads of this peptide / all reads for the bait, averaged over …"}
    ]}
  ]
}
